Assay [1] concerns the target T1, light-activated and phosphorylated rhodopsin in rod outer segment membranes (P-ROS*) (UniProt P02699 1-348, phosphorylated by endogenous GRK1: mixture of species with up to seven phosphate groups per molecule, sites not stated).
T1 construct: rhodopsin, endogenous in native rod outer segment (ROS) disc membranes (isolated membranes, not whole cells); also called ROS-P*; source: rod outer segment disc membranes isolated from native source; phosphorylated by endogenously available GRK1; illuminated
Put plainly: pull-down; 1.5 µg purified arrestin-1-mCherry and 15 µg (rhod-)opsin in native ROS membranes, 50 µl, 100 mM Hepes pH 7.0, 100 mM NaCl, 1 mM DTT, 0.1 mM EDTA; P-ROS* and ROS* illuminated 2.5 min (495 nm long-pass), others kept dark; centrifuged at 4 °C, pellet washed, mCherry fluorescence. Particulars: one partner purified.

Assay [2] concerns the target T1, light-activated and phosphorylated …. Put plainly: pull-down; cleared bacterial lysate with arrestin-mCherry mixed with ROS-P* membranes; 10 mM Hepes pH 7.0, 1 mM DTT, 1 mM MgCl2, 0.1 mM EDTA, NaCl from 100 mM to 3.949 M; 37 °C, 5 min incubation, light activated 6 min; membranes pelleted, washed, mCherry fluorescence of the pellet; IC50 of NaCl for complex formation. Particulars: partners not purified.

For assay [3] the target is unchanged. Described as above. Particulars: partners not purified. This is another data set of the same source.

T1 sequence (P02699 whole entry): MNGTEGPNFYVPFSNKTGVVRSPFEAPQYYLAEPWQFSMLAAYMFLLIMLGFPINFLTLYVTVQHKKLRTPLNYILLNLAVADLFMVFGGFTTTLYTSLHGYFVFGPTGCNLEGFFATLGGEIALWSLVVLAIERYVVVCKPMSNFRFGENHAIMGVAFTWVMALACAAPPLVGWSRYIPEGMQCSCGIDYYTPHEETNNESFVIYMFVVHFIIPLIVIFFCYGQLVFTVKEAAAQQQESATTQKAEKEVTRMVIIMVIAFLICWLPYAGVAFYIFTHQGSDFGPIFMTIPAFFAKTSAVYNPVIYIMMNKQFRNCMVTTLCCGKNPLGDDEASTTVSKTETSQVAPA

B1: arrestin-1-mCherry-Strep-tag double mutant T304A + F375A, HEK293-expressed and purified (natural protein, bovine, UniProt P08168 1-404, looked up)
chain: MKANKPAPNHVIFKKISRDKSVTIYLGKRDYIDHVERVEPVDGVVLVDPELVKGKRVYVSLTCAFRYGQEDIDVMGLSFRRDLYFSQVQVFPPVGASGATTRLQESLIKKLGANTYPFLLTFPDYLPCSVMLQPAPQDVGKSCGVDFEIKAFATHSTDVEEDKIPKKSSVRLLIRKVQHAPRDMGPQPRAEASWQFFMSDKPLRLAVSLSKEIYYHGEPIPVTVAVTNSTEKTVKKIKVLVEQVTNVVLYSSDYYIKTVAAEEAQEKVPPNSSLTKTLTLVPLLANNRERRGIALDGKIKHEDANLASSTIIKEGIDKTVMGILVSYQIKVKLTVSGLLGELTSSEVATEVPFRLMHPQPEDPDTAKESFQDENAVFEEFARQNLKDAGEYKEEKTDQEAAMDE
notes: arrestin-1 (visual arrestin), bovine, UniProt P08168; also called T304A + F375A double mutant; source: HEK293, transiently transfected (pcDNA3.1), one-step purified (Strep-Tactin); not shown: mCherry, C-terminal, kept
Turning to B1, the “activity level relative to WT” value in assay [1] worked out at 106%.

B2: arrestin-1-mCherry double mutant T304A + F375A, bacterial lysate (natural protein, bovine, UniProt P08168 1-404, looked up)
chain: MKANKPAPNHVIFKKISRDKSVTIYLGKRDYIDHVERVEPVDGVVLVDPELVKGKRVYVSLTCAFRYGQEDIDVMGLSFRRDLYFSQVQVFPPVGASGATTRLQESLIKKLGANTYPFLLTFPDYLPCSVMLQPAPQDVGKSCGVDFEIKAFATHSTDVEEDKIPKKSSVRLLIRKVQHAPRDMGPQPRAEASWQFFMSDKPLRLAVSLSKEIYYHGEPIPVTVAVTNSTEKTVKKIKVLVEQVTNVVLYSSDYYIKTVAAEEAQEKVPPNSSLTKTLTLVPLLANNRERRGIALDGKIKHEDANLASSTIIKEGIDKTVMGILVSYQIKVKLTVSGLLGELTSSEVATEVPFRLMHPQPEDPDTAKESFQDENAVFEEFARQNLKDAGEYKEEKTDQEAAMDE
notes: arrestin-1 (visual arrestin), bovine, UniProt P08168; not shown: mCherry, C-terminal, kept
In the case of B2, in assay [2], the “IC50 of NaCl for complex formation” value was found to be 1.51 M. In addition, the “IC50 of NaCl relative to WT” value in assay [3] was found to be 502%.

Values taken from paper PMC6346018 (Scientific Reports, 2019).
